The target in assay [1] is T1, CD19 (UniProt P15391 20-556).
T1 chain: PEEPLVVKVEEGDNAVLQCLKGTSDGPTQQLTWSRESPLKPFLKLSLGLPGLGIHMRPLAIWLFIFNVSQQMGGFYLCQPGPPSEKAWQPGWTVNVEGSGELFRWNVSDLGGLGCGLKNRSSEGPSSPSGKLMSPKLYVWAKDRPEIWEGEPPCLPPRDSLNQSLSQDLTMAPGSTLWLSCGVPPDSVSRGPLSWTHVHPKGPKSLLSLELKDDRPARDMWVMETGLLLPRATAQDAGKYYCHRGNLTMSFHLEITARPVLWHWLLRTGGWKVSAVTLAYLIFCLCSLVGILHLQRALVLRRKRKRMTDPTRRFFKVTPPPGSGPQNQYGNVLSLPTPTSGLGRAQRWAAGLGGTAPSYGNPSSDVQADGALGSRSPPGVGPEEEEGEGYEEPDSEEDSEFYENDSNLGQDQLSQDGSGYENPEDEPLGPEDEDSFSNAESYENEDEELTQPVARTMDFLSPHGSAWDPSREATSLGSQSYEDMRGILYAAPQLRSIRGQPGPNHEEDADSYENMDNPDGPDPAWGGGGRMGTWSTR
Put plainly: flow cytometry cell binding; FIG. 8.

For assay [2], the target named is CD19 (UniProt P15391). Briefly: cell-based or functional assay.
The target of assay [3] is T2, CD19 (UniProt P15391 20-556, limits assumed).
T2 sequence (looked up): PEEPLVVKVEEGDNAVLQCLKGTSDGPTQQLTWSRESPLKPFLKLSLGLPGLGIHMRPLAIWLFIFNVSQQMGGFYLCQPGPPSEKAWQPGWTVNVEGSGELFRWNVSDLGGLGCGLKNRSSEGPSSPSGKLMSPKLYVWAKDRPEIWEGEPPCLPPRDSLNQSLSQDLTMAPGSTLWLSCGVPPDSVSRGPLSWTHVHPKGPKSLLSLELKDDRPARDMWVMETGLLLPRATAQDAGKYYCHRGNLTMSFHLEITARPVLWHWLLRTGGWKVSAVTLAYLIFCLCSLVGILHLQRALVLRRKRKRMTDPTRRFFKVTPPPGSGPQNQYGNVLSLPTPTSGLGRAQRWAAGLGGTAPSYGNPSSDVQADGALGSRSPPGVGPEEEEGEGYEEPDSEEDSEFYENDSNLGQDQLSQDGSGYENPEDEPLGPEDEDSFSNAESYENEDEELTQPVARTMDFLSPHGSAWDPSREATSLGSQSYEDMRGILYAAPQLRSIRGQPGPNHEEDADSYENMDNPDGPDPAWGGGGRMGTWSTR
Briefly: cell-based or functional assay.

Assay [4] deals with T1, CD19. Put plainly: flow cytometry cell binding; FIG. 6. (In general: A flow cytometer gives signals particle by particle.)
Assay [5] deals with T1, CD19. Briefly: flow cytometry cell binding; FIG. 7.
Assay [6] has as its target T1, CD19. Briefly: flow cytometry cell binding; FIG. 5; WT switch (no PNE).

B1: hFMCL2b-LCNT/hFMCH4c (Fab, V domains shown)
VH: QVQLQESGPGLVKPSETLSVTCTVSGVSLPDYGVSWIRQPPGKGLEWLGVIWGSETTYYNSALKSRLTISKDNSKNQVSLKMSSLTAADTAVYYCAKHYYYGGSYAMDYWGQGTLVTVSS
VL: DIQMTQSPSSLSASVGDRVTITCRASQDISKYLNWYQQKPGKAVKLLIYHTSRLHSGVPSRFSGSGSGTDYTLTISSLQPEDFATYFCQQGATLPYTFGQGTKLEIK
Take B1: the midpoint of the response in assay [1], the EC50, lay at 1590 pM. Besides, in assay [2], the EC50 of cytotoxicity (LDH), sCAR-T cells + switch vs CD19+ RS4;11, Average of the repeat assays was found to be 10.2 pM; the EC50 of cytotoxicity (LDH), sCAR-T cells + switch vs CD19+ RS4;11, assay DTR-5-15 (PBMC) amounted to 8.41 pM; the EC50 of cytotoxicity (LDH), sCAR-T cells + switch vs CD19+ RS4;11, assay DTR-5-16 (CD4:CD8) was found to be 8.47 pM; the EC50 of cytotoxicity (LDH), sCAR-T cells + switch vs CD19+ RS4;11, assay DTR-5-50 (PBMC) worked out at 7.54 pM. Also, the EC50 of cytotoxicity (LDH), sCAR-T cells + switch vs CD19+ RS4;11, assay DTR-5-51 (CD4:CD8) in assay [2] was determined as 16.5 pM. Moreover, in assay [3], the “EC50 of cytotoxicity (LDH), sCAR-T cells + switch vs CD19+ RS4;11, Average of the repeat assays” value came to 4.6 pM; the “EC50 of cytotoxicity (LDH), sCAR-T cells + switch vs CD19+ RS4;11, assay DTR-5-15 (PBMC)” value (“EC50 … vs CD19+ RS4;11, assay DTR-5-15 (PBMC)” below) stood at 4.57 pM; the “EC50 of cytotoxicity (LDH), sCAR-T cells + switch vs CD19+ RS4;11, assay DTR-5-16 (CD4:CD8)” value (shortened to “EC50 … vs CD19+ RS4;11, assay DTR-5-16 (CD4:CD8)”) was found to be 4.61 pM; the “EC50 of cytotoxicity (LDH), sCAR-T cells + switch vs CD19+ RS4;11, assay DTR-5-50 (PBMC)” value (“EC50 … vs CD19+ RS4;11, assay DTR-5-50 (PBMC)” below) is 3.78 pM. Moreover, the “EC50 of cytotoxicity (LDH), sCAR-T cells + switch vs CD19+ RS4;11, assay DTR-5-51 (CD4:CD8)” value (shortened to “EC50 … vs CD19+ RS4;11, assay DTR-5-51 (CD4:CD8)”) in assay [3] is 5.45 pM. Further, the EC50 (commonly the concentration at which the effect is half-maximal) in assay [4] was 1260 pM.

B2: hFMCL2/H4b wt (antibody, V domains shown)
VH: QVQLQESGPGLVKPSETLSVTCTVSGVSLPDYGVSWIRQPPGKGLEWLGVIWGSETTYYNPSLKSRLTISKDNSKNQVSLKMSSLTAADTAVYYCAKHYYYGGSYAMDYWGQGTLVTVSS
VL: DIQMTQSPSSLSASVGDRVTITCRASQDISKYLNWYQQKPGKAPKLLIYHTSRLHSGVPSRFSGSGSGTDYTLTISSLQPEDFATYYCQQGATLPYTFGQGTKLEIK
As to B2, the EC50 in assay [1] came to 3840 pM.

B3: hFMCL2b-LCNT/hFMCH4b (Fab, V domains shown)
VH: QVQLQESGPGLVKPSETLSVTCTVSGVSLPDYGVSWIRQPPGKGLEWLGVIWGSETTYYNPSLKSRLTISKDNSKNQVSLKMSSLTAADTAVYYCAKHYYYGGSYAMDYWGQGTLVTVSS
VL: DIQMTQSPSSLSASVGDRVTITCRASQDISKYLNWYQQKPGKAVKLLIYHTSRLHSGVPSRFSGSGSGTDYTLTISSLQPEDFATYFCQQGATLPYTFGQGTKLEIK
On to B3, for which the EC50 in assay [5] turned out to be 2270 pM. For the same molecule, in assay [3], the “EC50 of cytotoxicity (LDH), sCAR-T cells + switch vs CD19+ RS4;11, Average of the repeat assays” value came out at 6.21 pM; the “EC50 … vs CD19+ RS4;11, assay DTR-5-15 (PBMC)” value amounted to 5.17 pM; the “EC50 … vs CD19+ RS4;11, assay DTR-5-16 (CD4:CD8)” value worked out at 5.78 pM; the “EC50 … vs CD19+ RS4;11, assay DTR-5-50 (PBMC)” value was determined as 3.93 pM. Also, the “EC50 … vs CD19+ RS4;11, assay DTR-5-51 (CD4:CD8)” value in assay [3] stood at 9.96 pM. In assay [4], this molecule came in with an EC50 of 1220 pM.

B4: hFMCL2/H4z (antibody, V domains shown)
VH: QVQLQESGPGLVKPSETLSVTCTVSGVSLPDYGVSWIRQPPGKGLEWLGVIWGSETTYYNSSLKSRLTISKDNSKNQVSLKMSSLTAADTAVYYCAKHYYYGGSYAMDYWGQGTLVTVSS
VL: DIQMTQSPSSLSASVGDRVTITCRASQDISKYLNWYQQKPGKAPKLLIYHTSRLHSGVPSRFSGSGSGTDYTLTISSLQPEDFATYYCQQGATLPYTFGQGTKLEIK
In the case of B4, the EC50 came out at 13100 pM in assay [1] and 12400 pM in assay [4].

B5: hFMCL2a-LCNT/hFMCH4c (Fab, V domains shown)
VH: QVQLQESGPGLVKPSETLSVTCTVSGVSLPDYGVSWIRQPPGKGLEWLGVIWGSETTYYNSALKSRLTISKDNSKNQVSLKMSSLTAADTAVYYCAKHYYYGGSYAMDYWGQGTLVTVSS
VL: DIQMTQSPSSLSASVGDRVTITCRASQDISKYLNWYQQKPGKAVKLLIYHTSRLHSGVPSRFSGSGSGTDYTLTISSLQPEDFATYYCQQGATLPYTFGQGTKLEIK
Take B5: the 50% effective concentration (EC50) in assay [1] is 1810 pM. In assay [3], the “EC50 of cytotoxicity (LDH), sCAR-T cells + switch vs CD19+ RS4;11, Average of the repeat assays” value came out at 9.5 pM; the “EC50 … vs CD19+ RS4;11, assay DTR-5-15 (PBMC)” value was 4.43 pM; the “EC50 … vs CD19+ RS4;11, assay DTR-5-16 (CD4:CD8)” value was 9.32 pM; the “EC50 … vs CD19+ RS4;11, assay DTR-5-50 (PBMC)” value stood at 7.05 pM. The “EC50 … vs CD19+ RS4;11, assay DTR-5-51 (CD4:CD8)” value in assay [3] turned out to be 17.2 pM. The half-maximal effective concentration (EC50) in assay [4] was 1700 pM.

B6: hFMCL2/H4b WT (antibody, V domains shown)
VH: QVQLQESGPGLVKPSETLSVTCTVSGVSLPDYGVSWIRQPPGKGLEWLGVIWGSETTYYNPSLKSRLTISKDNSKNQVSLKMSSLTAADTAVYYCAKHYYYGGSYAMDYWGQGTLVTVSS
VL: DIQMTQSPSSLSASVGDRVTITCRASQDISKYLNWYQQKPGKAPKLLIYHTSRLHSGVPSRFSGSGSGTDYTLTISSLQPEDFATYYCQQGATLPYTFGQGTKLEIK
For B6, the concentration for a half-maximal effect (EC50) in assay [5] is 5380 pM; in assay [6], 4130 pM.

Source of the values: patent US20190359697A1 (Scripps Research, published 2019).
